Target: Hsp70-mCherry (human, cytoplasmic, heat-inducible hsp70 (hsp72) with a C-terminal mCherry tag) (human) (UniProt P0DMV8)
Assay: FRET or BRET; live U2OS cells co-expressing the GFP-tagged PGK (donor) and the mCherry-tagged partner (acceptor); donor/acceptor (D/A) fluorescence ratio per cell under steady illumination, temperature titration 20°C-45°C, fitted by a two-state model

Chain of UniProt P0DMV8 (P0DMV8 whole entry): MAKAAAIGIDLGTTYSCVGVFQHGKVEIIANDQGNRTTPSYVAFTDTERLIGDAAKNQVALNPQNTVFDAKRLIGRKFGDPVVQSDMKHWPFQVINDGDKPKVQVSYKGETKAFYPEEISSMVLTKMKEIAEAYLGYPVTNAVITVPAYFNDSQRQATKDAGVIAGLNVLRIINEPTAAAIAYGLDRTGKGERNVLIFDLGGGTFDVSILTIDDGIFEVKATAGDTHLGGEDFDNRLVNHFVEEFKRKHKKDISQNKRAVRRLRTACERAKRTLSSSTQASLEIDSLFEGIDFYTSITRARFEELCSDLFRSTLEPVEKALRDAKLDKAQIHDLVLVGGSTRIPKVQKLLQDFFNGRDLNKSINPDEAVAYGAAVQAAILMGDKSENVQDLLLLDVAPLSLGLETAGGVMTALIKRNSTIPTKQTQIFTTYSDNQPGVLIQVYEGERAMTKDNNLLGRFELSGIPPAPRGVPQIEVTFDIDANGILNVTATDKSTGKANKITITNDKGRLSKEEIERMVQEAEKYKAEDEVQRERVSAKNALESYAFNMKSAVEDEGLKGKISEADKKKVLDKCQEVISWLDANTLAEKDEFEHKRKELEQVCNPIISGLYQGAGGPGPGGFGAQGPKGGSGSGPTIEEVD

- temperature midpoint of binding: 39 °C
- temperature of binding onset: 35 °C
Substance: ltPGK-GFP (low melting temperature mutant of phosphoglycerate kinase, Y122W/W308F/W333F, with an N-terminal GFP tag) (enzyme)
